Test results: patent publication US5985273A, “Biological control of insects” (priority 1994, dated 1999)

What was measured:
[1] = tested on: European corn borer (ECB) neonatal larvae; conditions: 20 mg/ml of diet; laboratory assay; cited from earlier work
[2] = tested on: Southern corn rootworm (SCR) neonatal larvae; conditions: 20 mg/ml of diet; laboratory assay; cited from earlier work
Lucilia cuprina larvae = assay: Growth and survival of first instar sheep blowfly larvae on culture medium with inhibitor; format: in vivo; conditions: for Effect on larval growth, summary in words: Example 1, Table 1.2; for % Growth Inhibition / Average Larval Weight: Table 2.2; for Average Larval Weight: control 10.26
Teleogryllus commodus = assay: Mortality of black field cricket nymphs on treated cabbage leaf disks; format: in vivo; conditions: after 7 days
Method: (i) Stock solutions of inhibitors and control solutions were prepared as aqueous solutions or suspensions as outlined in Table 6.1.
(ii) Mortality was assessed by commencing the study with 1st instar nymphs.
(iii) Cabbage leaf disks (5×8 mm diameter disks/treatment) were smeared with 100 μl of inhibitor or control stock solutions and allowed to dry. Disks were placed singly in 40 mm petri dishes, together with a moist cotton wool pas as water supply and a piece of fluted plastic for shelter.
(iv) Ten nymphs were placed on each disc and the dishes incubated at 25° C.
(v) Mortality was assessed daily and any dead individuals removed.

Tribolium castaneum = assay: Growth and survival of Tribolium castaneum in treated flour; format: in vivo; conditions: Day 6; all dose levels
Method: Insects were cultured in cleaned, ground and sieved wholemeal flour made from organic wheat. Inhibitors from bottles of pre-weighed material were dry-mixed with the flour and residual inhibitor rinsed from bottles with a small volume of water. Rinse water was added to the flour and the mixture re-ground. The impregnated flour was transferred to a 20 mL vial and mixed thoroughly by shaking and inverting. Adults of T. castaneum were allowed to oviposit on flour, eggs were sifted from the flour and transferred one by one with a single hair to microwell tubes containing a small amount of flour. Each level of treatment was performed in triplicated using 32 wells/replicate. Assays were performed in triplicated. Cultures were incubated at 30° C. and 55% R H. After 6 days each replicate of 32 wells was combined, the larvae counted and the numbers compared with numbers in the control (no inhibitor) treatment. Larvae were classified as "small" if appreciably smaller than reference larvae, or abnormal if unusual behaviour or formation were observed (eg. twisting or twisted larvae). Test inhibitors and dose rates were the same as those used in Example 4.

O. surinamensis larvae = assay: Weight reduction of Oryzaephylus surinamensis larvae in treated flour; format: in vivo
Method: Insects were cultured in cleaned, ground and sieved wholemeal flour made from organic wheat. Inhibitors from bottles of pre-weighed material were dry-mixed with the flour and residual inhibitor rinsed from bottles with a small volume of water. Rinse water was added to the flour and the mixture re-ground. The impregnated flour was transferred to a 20 mL vial and mixed thoroughly by shaking and inverting.
Adults of T. castaneum were allowed to oviposit on flour, eggs were sifted from the flour and transferred one by one with a single hair to microwell tubes containing a small amount of flour. Each level of treatment was performed in triplicated using 32 wells/replicate. Assays were performed in triplicated. Cultures were incubated at 30° C. and 55% R H.
The bioassay for this insect was outlined for T. castaneum, except incubations were conducted at 32.5° C. and 70% R H. After 8 days the insects were sieved from the flour and weighed.

[3] = tested on: Heliothis punctigens larvae; assay: Growth and survival of cotton budworm larvae fed an artificial diet; format: in vivo; conditions: 10 days; for % Alive: control 70.0
Method: 1. The Haricot beans were cooked in a microwave for 40 minutes. 2. Agar was added to the hot water and stirred on a hot plate until almost boiling. 3. The haricot beans, agar mix, yeast and wheat germ was blended in an electric mixer for 3 minutes. 4. When the temperature has dropped to 60°C., the acids were added and mixed with the media. […] Inhibitor solutions or an equal volume of water were placed into sterilized glass tubes at designated concentrations. The artificial media was added to each tube (1.5 ml) using a sterile 10 ml syringe. First instar Heliothis punctigens larvae (1 larvae per tube) were added to the glass tubes and the tubes were capped. The tubes were incubated for 10 days at 25° C. The larvae were killed by placing the glass tubes at -70° C. for 24 hours, and then individually weighed. Percentage inhibition was calculated by comparison to control larvae.

Ctenocephalides felis = assay: Development of cat flea eggs in dried blood diets; format: in vivo; conditions: Day 16
Method: Blood was collected from the jugular vein of a five year old merino sheep that had not been treated with an ectoparasitic agent for 18 months. The blood was collected into a 100 ml plastic bottle containing 0.8 ml of heparin and was maintained at 4° C. Inhibitors were pre-weighed into sterile 5 ml plastic vials and 4.5 ml of blood added. The samples were mixed, placed at -70° C. for 24 hours, then freeze-dried. The freeze-dried samples were sieved through a stainless steel 63 micron sieve, and placed into sterile 5 ml plastic vials (0.15 g/per tube). Four flea eggs were placed into each vial, and a sheet of tissue paper fastened by an elastic band was fitted to the top of each vial. The vials were incubated at 25° C. and 70-80% R H for 6 days. Vermiculite was then added to each vial to provide a supporting medium for the fleas to pupate and the tubes incubated at 25° C. and 70-80% R H, for a further 10 days. Ten control vials and three vials of each treatment were tested.
At the conclusion of the incubation period the vials were placed at -20° C. for 24 hours to kill the fleas. The number of eggs hatched and the life-cycle state was recorded.

L. cuprina eggs = assay: Egg hatch of L. cuprina on liver in vitro; format: in vivo, Lucilia cuprina; conditions: 0.17 mM; 24 hours at 35° C.; control 71
Method: L. cuprina eggs were placed on pieces of liver (0.9 g) which were then placed in individual wells of a 24-well tissue culture plate. Phosphate buffered saline (PBS, 0.1 ml) containing inhibitors at set concentrations were added to each well with 30 freshly laid and sterilised eggs of L. cuprina. The culture plate was then maintained in a sterile environment at 35° C. for 24 hours, after which time the percentage hatch was assessed.

[4] = tested on: Bovicola ovis (Hartley strain); assay: Survival of sheep lice on inhibitor treated wool; format: in vivo; conditions: of 10 lice, 24 Hours at 35° C.
[5] = tested on: Colorado potato beetle larvae; conditions: fed on potato leaves; cited from earlier work

aprotinin
Neonatal larvae killed [1]: 100% | Neonatal larvae killed [2]: 60%

c1cnc2c(c1)ccc1cccnc12 [1,10-phenanthroline]
Effect on larval growth, summary in words (Lucilia cuprina larvae): effective growth inhibitors | Larval survival (Lucilia cuprina larvae; first instar larvae, tested at 1, 2.5, 5 mM): All larvae died | Mortality (class) (Teleogryllus commodus; 5-20 mM): Medium (medium 21-40%) | Larval size classification (Tribolium castaneum): normal | inhibition at 5000 µM (O. surinamensis larvae; 192 h, 5 mM, 8 days, relative to untreated larvae, read-out: Percentage Growth Inhibition): 100% | inhibition at 10000 µM (O. surinamensis larvae; 192 h, 10 mM, 8 days, relative to untreated larvae, read-out: Percentage Growth Inhibition): 63% | inhibition at 20000 µM (O. surinamensis larvae; 192 h, 20 mM, 8 days, relative to untreated larvae, read-out: Percentage Growth Inhibition): 95% | Growth inhibition, summary in words (O. surinamensis larvae; text summary of Table 9.1): highly effective

CCCCC[C@H](CC(=O)NO)C(=O)N[C@H](C(=O)N1CCC[C@H]1CO)C(C)C [Actinonin]
Effect on larval growth, summary in words (Lucilia cuprina larvae): effective growth inhibitors | inhibition at 2500 µM (Lucilia cuprina larvae; Lucilia cuprina, first instar larvae, 2.5 mM): 83% | inhibition at 10000 µM (Lucilia cuprina larvae; Lucilia cuprina, first instar larvae, 10 mM): 95% | % Alive ([3]; 2.5 mM): 33.3% | % Alive ([3]; 5.0 mM): 0.00% | inhibition at 2500 µM ([3]; Heliothis, 240 h, 2.5 mM, read-out: % Growth Inhibition): 97.5% | inhibition at 5000 µM ([3]; Heliothis, 240 h, 5.0 mM, read-out: % Growth Inhibition): 100% | Percentage of Fleas Progressing Through to Pupation (Ctenocephalides felis; 1.40 mg in 4.5 ml of blood): 0% | Percentage of Fleas Progressing Through to Pupation (Ctenocephalides felis; 2.80 mg in 4.5 ml of blood): 16.8% | Mortality (class) (Teleogryllus commodus; 5 mM): None (none/low, 10-20% mortality) | Larval size classification (Tribolium castaneum): small

B1: Soybean Trypsin Inhibitor (protein, UniProt P01070 25-205, looked up)
Trypsin inhibitor A: DFVLDNEGNPLENGGTYYILSDITAFGGIRAAPTGNERCPLTVVQSRNELDKGIGTIISSPYRIRFIAEGHPLSLKFDSFAVIMLCVGIPTEWSVVEDLPEGPAVKIGENKDAMDGWFRLERVSDDEFNNYKLVFCPQQAEDDKCGDIGISIDHDDGTRRLVVSKNKPLVVQFQKLDKESL
% Growth Inhibition (Lucilia cuprina larvae; 0.0425 mM): -22.5% | Average Larval Weight (Lucilia cuprina larvae; 0.0425 mM): 12.57 10^-4 g | % Growth Inhibition (Lucilia cuprina larvae; 0.085 mM): 28.5% | Average Larval Weight (Lucilia cuprina larvae; 0.085 mM): 7.34 10^-4 g | % Growth Inhibition (Lucilia cuprina larvae; 0.170 mM): 45.1% | Average Larval Weight (Lucilia cuprina larvae; 0.170 mM): 5.63 10^-4 g | % Growth Inhibition (Lucilia cuprina larvae; 0.340 mM): 69.3% | Average Larval Weight (Lucilia cuprina larvae; 0.340 mM): 3.15 10^-4 g | % Growth Inhibition (Lucilia cuprina larvae; 0.680 mM): 70.6% | Average Larval Weight (Lucilia cuprina larvae; 0.680 mM): 3.02 10^-4 g | Growth Inhibition (Lucilia cuprina larvae; first instar larvae, 0.17 mM): 76% | Growth Inhibition (Lucilia cuprina larvae; first instar larvae, 0.40 mM): 64% | % Hatch (L. cuprina eggs): 17% | Percentage of Fleas Progressing Through to Pupation (Ctenocephalides felis; 5.0 mg in 4.5 ml of blood): 0% | Percentage of Fleas Progressing Through to Pupation (Ctenocephalides felis; 10.0 mg in 4.5 ml of blood): 0% | Mortality (class) (Teleogryllus commodus; 0.17-0.68 mM): None (none/low, 10-20% mortality) | Number of Living Lice ([4]; Adult, 0.17 mM): 4 | Number of Living Lice ([4]; Adult, 0.34 mM): 0 | Number of Living Lice ([4]; Adult, 0.68 mM): 0 | Number of Living Lice ([4]; instar 1, 0.17 mM): 1 | Number of Living Lice ([4]; instar 1, 0.34 mM): 1 | Number of Living Lice ([4]; instar 1, 0.68 mM): 0 | Number of Living Lice ([4]; instar 2, 0.17 mM): 2 | Number of Living Lice ([4]; instar 2, 0.34 mM): 0 | Number of Living Lice ([4]; instar 2, 0.68 mM): 0 | Number of Living Lice ([4]; instar 3, 0.17 mM): 2 | Number of Living Lice ([4]; instar 3, 0.34 mM): 4 | Number of Living Lice ([4]; instar 3, 0.68 mM): 0 | Percentage Growth Inhibition (O. surinamensis larvae; 0.17 mM, 8 days, relative to untreated larvae): 12% | Percentage Growth Inhibition (O. surinamensis larvae; 0.34 mM, 8 days, relative to untreated larvae): 30% | Percentage Growth Inhibition (O. surinamensis larvae; 0.68 mM, 8 days, relative to untreated larvae): 46% | Growth retardation [5]: ineffective
